{
  "source": "patent US12564623B2",
  "about": "“Methods and compositions for treating cancer” (The University of Chicago, priority 2017, dated 2026)",
  "molecules": {"B1": {"name": "neutrophil elastase (protein, listed as Homo sapiens)", "chain": "MTLGRRLACLFLACVLPALLLGGTALASEIVGGRRARPHAWPFMVSLQLRGGHFCGATLIAPNFVMSAAHCVANVNVRAVRVVLGAHNLSRREPTRQVFAVQRIFENGYDPVNLLNDIVILQLNGSATINANVQVAQLPAQGRRLGNGVQCLAMGWGLLGRNRGIASVLQELNVTVVTSLCRRSNVCTLVRGRQAGVCFGDSGSPLVCNGLIHGIASFVRGGCASGLYPDAFAPVAQFVNWIDSIIQRSEDNPCPHPRDPDPASRTH", "notes": "purified native ELANE"}},
  "key": {"[1]": {"system": "healthy cells", "assay": "Healthy cell viability, Calcein AM", "format": "cell-based", "settings": "50 nM, 24 hrs", "protocol": "Human PMN'S broadly and selectively kill cancer cells. Human peripheral blood neutrophils (PMN) were isolated from healthy donors and incubated in serum-free DMEM to collect their secreted factors (PMN-media). (A-B) Human or murine cancer cells (A) or healthy cells (b) were incubated with PMN media or control serum-free DMEM (Ctrl media) for 24 hours. Cell viability was assessed by Calcein AM staining. (C) Human or murine cancer cells were treated with PMN media or Ctrl media for 6 hours. Caspase 3/7 activity was examined by a luminescence activity assay, while cell surface Annexin V staining was assessed by flow cytometry. […] (FIG. 1).\n(FIG. 6A) Cancer cells or healthy cells were treated with 50 nM purified native ELANE or control DMEM media (Ctrl) media for 24 hrs, and cell viability was assessed by Calcein AM staining. (FIG. 6B) Cancer cells were treated with 50 nM ELANE or Ctrl media for 6 hrs, and apoptosis was assessed by Caspase 3/7 luminesce activity assay or cell surface Annexin V staining by flow cytometry. *, p<0.05, Student's t-test."}, "[2]": {"system": "E0771 cancer cells", "assay": "ELANE with anti-PD-L1 in a mouse model of TNBC", "format": "in vivo, C57BL/6 mice", "settings": "ELANE 11.6 μg + anti-PD-L1 100 μg", "protocol": "E0771 cancer cells were injected into C57BL/6 mice. Once tumors reached ˜100 mm^3, mice were randomly separated into four groups: ELANE (11.6 μg), PMSF-inactivated ELANE (PMSF-ELANE), anti-PD-L1 (BioXCell, 10F.9G2, 100 μg), and ELANE (11.6 μg)+anti-PD-L1 (100 μg). n=8-9 mice/group. Anti-PD-L1 monoclonal antibody was injected intaperitoneally on days 10, 14, 18, and 22 after tumor inoculation. ELANE or PMSF-ELANE were delivered intra-tumorally when tumors reached ˜[…] (˜ 14 days post cancer cell injection). (FIG. 20A) Tumor volume was measured by calipers. (FIG. 20B) Kaplan-Meier curve was plotted and the logrank test (Mentel-Cox method) was used for mouse survival analysis. End point of survival is defined as tumor volume >1000 mm^3. *, p<0.05, Student's t-test."}, "[3]": {"system": "CD95", "assay": "Recombinant CD95 degradation, SDS-PAGE and coomassie blue", "format": "biochemical, human", "settings": "ELANE 0.05 μg, 1 μg recombinant protein, 2 hrs at 37° C.", "protocol": "ELANE lowers CD95 levels in cancer cells and reduced CD95 levels are associated with apoptosis. (FIG. 8A) Recombinant proteins (1 μg) corresponding to full length CD95 (FL-CD95), N-terminal domain of CD95 (amino acids 1-173; N-CD95), or C-terminal domain of CD95 (amino acids 157-320; C-CD95) were inbuated with ELANE (0.05 μg) or vehicle (Veh) for 2 hrs at 37° C. Degradation was assessed by SDS-PAGE followed by coomassie blue staining. […] (FIG. 8C) Cancer cells were treated with ELANE (50 nM) for 1 hr, fixed in 10% formalin, and stained with N- or C-terminal specific anti-CD95 antibodies (green). Hoechst 33342 solution was used for nuclear staining (blue). Images were taken under 40×.\nELANE selectively cleaves the C-terminal domain of CD95. […] Degradation was assessed by SDS-PAGE followed by staining with coomassie blue. […] Mel888 cancer cells were treated with ELANE (50 nM) for various times, and CD95 degradation was assessed by western blot analysis with a C-terminal specific anti-CD95 antibody.\nOther serine proteases cleave the C-terminal domain of CD95, and the ability to cleave the C-terminal domain is associated with cancer cell killing. […] Degradation was assessed by SDS-PAGE followed by coomassie blue staining. […] Cell viability was assessed by Calcein AM staining."}, "[4]": {"system": "MDA-MB-231, A549, MEL888, M1, 4195, E0771, LLC1, B16F10 tumors", "assay": "Tumor growth in xenograft, PDX and syngeneic models", "format": "in vivo, mice", "settings": "11.6 μg intratumorally once/day for 5 days", "protocol": "MDA-MB-231, A549, or MEL888 cells (xenograft model) were injected into athymic nude mice; M1 or 4195 tumors (TNBC PDX models) were propagated in SCID mice; and E0771, LLC1, or B16F10 cells (syngeneic models) were injected into C57BL/6 mice. Once tumors reached ˜100 mm^3, ELANE (11.6 μg), or PMSF-ELANE (11.6 μg) were delivered intratumorally once/day for 5 days. n=8-15 mice/group. Tumor volume was assessed by calipers. Kaplan-Meier curve was plotted and the logrank test (Mentel-Cox method) was used for mouse survival analysis. Day 0 refers to the first treatment day. End point of survival is defined as tumor volume >1000 mm^3. (FIG. 15)"}, "[5]": {"system": "CD95", "assay": "CD95 immunoreactivity and ELANE uptake in non-cancer cells", "format": "cell-based", "protocol": "Non-cancer cells were treated with ELANE (50 nM) for 1 hr, fixed in 10% formalin, and stained with N- or C-terminal specific anti-CD95 antibodies. Hoechst 33342 solution was used for nuclear staining. Images were taken under 40×. […] Non-cancer cells were treated with ELANE (100 nM) in the presence or absence of a broad endocytosis inhibitor Dynasore (80 μM) for 30 mins. ELANE catalytic activity in cell lysates was assessed using a chromogenic substrate assay."}},
  "data": [
    {"molecule": "B1", "values": [
      {"measurement": "healthy cell viability", "setting": "[1]", "value": "does not kill normal healthy cells"},
      {"measurement": "efficacy with anti-PD-L1", "setting": "[2]", "value": "enables anti-PDL1 efficacy"},
      {"measurement": "cleavage of CD95 domains", "setting": "[3]", "value": "preferentially cleaves the C-terminal domain of CD95"},
      {"measurement": "tumor growth", "setting": "[4]", "value": "attenuates tumor growth in many cancer models"},
      {"measurement": "CD95 immunoreactivity of non-cancer cells", "setting": "[5]; 50 nM, 1 hr", "value": "loss of immunoreactivity with a C-terminal specific antibody"},
      {"measurement": "uptake by non-cancer cells", "setting": "[5]; 100 nM, 30 mins", "value": "internalized by non-cancer cells"}
    ]}
  ]
}
